No end group written: not given here.
Legend:
Assay in all cases: fluorescence polarisation
Details in all cases: both partners purified
[1] = biological target: T1, full-length human 14-3-3β fused to the C terminus of MBP (human, UniProt P31946 1-246)
T1 construct: not shown: MBP (crystallisable mutant), N-terminal, kept
T1 sequence (looked up): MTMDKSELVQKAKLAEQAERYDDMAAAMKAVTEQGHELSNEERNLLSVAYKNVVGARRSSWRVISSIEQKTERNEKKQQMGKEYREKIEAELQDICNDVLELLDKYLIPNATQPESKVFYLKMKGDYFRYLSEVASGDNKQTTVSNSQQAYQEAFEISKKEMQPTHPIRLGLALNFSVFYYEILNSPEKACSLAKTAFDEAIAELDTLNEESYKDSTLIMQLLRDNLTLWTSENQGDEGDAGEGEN

[2] = biological target: T2, full-length human 14-3-3γ fused to the C terminus of MBP (human, UniProt P61981 1-247)
T2 construct: not shown: MBP (crystallisable mutant), N-terminal, kept
T2 sequence (looked up): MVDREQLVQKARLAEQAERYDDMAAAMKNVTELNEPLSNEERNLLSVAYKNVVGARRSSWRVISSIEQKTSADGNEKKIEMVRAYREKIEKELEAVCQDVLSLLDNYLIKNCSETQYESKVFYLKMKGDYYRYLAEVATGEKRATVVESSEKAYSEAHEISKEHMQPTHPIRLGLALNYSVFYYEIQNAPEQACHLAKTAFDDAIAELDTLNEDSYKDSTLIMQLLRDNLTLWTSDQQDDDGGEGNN

[3] = biological target: T3, full-length human 14-3-3ε fused to the C terminus of MBP (human, UniProt P62258 1-255)
T3 construct: not shown: MBP (crystallisable mutant), N-terminal, kept
T3 sequence (looked up): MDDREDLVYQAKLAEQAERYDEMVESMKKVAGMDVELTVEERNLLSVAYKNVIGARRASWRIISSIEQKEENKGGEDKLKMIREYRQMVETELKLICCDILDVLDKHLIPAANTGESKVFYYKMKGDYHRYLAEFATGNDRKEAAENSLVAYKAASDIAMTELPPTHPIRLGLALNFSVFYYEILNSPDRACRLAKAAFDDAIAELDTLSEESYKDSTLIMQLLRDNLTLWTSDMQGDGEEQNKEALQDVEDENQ

[4] = biological target: T4, full-length human 14-3-3ζ fused to the C terminus of MBP (human, UniProt P63104 1-245)
T4 construct: not shown: MBP (crystallisable mutant), N-terminal, kept
T4 sequence (looked up): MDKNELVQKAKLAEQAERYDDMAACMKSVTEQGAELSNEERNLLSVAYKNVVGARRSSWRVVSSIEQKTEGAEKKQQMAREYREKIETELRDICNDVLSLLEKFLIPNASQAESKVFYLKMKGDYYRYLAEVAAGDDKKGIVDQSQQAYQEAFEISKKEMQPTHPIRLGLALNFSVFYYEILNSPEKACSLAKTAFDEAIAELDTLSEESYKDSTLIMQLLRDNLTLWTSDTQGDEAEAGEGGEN

[5] = biological target: T5, full-length human 14-3-3η fused to the C terminus of MBP (human, UniProt Q04917 1-246)
T5 construct: not shown: MBP (crystallisable mutant), N-terminal, kept
T5 sequence (looked up): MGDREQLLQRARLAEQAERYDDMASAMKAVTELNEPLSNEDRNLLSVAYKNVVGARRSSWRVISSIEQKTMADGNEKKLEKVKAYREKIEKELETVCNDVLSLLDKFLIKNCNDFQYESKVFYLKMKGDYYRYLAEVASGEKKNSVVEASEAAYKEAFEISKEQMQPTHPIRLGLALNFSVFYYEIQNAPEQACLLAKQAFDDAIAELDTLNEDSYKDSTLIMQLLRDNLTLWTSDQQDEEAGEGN

[6] = biological target: T6, full-length human 14-3-3σ fused to the C terminus of MBP (human, UniProt P31947 1-248)
T6 construct: not shown: MBP (crystallisable mutant), N-terminal, kept
T6 sequence (looked up): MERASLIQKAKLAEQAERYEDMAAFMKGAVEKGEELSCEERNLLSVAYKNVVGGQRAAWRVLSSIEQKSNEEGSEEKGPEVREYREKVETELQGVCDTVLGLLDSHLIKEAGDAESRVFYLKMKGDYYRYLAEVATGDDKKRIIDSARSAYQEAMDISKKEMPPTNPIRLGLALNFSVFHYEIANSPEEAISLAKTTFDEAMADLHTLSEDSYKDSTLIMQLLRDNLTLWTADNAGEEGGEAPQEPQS

[7] = biological target: T7, full-length human 14-3-3τ fused to the C terminus of MBP (human, UniProt P27348 1-245)
T7 construct: not shown: MBP (crystallisable mutant), N-terminal, kept
T7 sequence (looked up): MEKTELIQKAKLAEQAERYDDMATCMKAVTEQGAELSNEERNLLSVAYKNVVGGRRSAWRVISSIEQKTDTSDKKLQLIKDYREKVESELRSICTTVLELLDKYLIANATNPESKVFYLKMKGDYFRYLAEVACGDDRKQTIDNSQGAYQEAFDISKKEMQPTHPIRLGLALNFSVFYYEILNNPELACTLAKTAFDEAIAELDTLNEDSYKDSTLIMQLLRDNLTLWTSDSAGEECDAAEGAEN

Measured: binding result

B1: fluorescently labeled HSPB6 phosphopeptide (fpB6) (peptide)
peptide: WLRRASAPLPGLK
modifications: also: phosphorylation, site not given here, fluorescent label, unspecified
notes: also called FITC-labeled HSPB6 phosphopeptide; tracer; source: synthetic peptide, amino-terminal FITC labeling
binds: all assays above

B2: RSK1 phospho-PBM peptide RSK1_-1P (peptide)
peptide: RRVRKLPSTTL
modifications: not fully specified (residue 10)
notes: source: synthetic peptide (in-house, Fmoc)
binds: all assays above

B3: RSK1 phospho-PBM peptide RSK1_-2P (peptide)
peptide: RRVRKLPSTTL
modifications: not fully specified (residue 9)
notes: as for B2
binds: all assays above

Source: article PMC7961048, “Hierarchized phosphotarget binding by the seven human 14-3-3 isoforms” (Nature Communications, 2021)
